According to the nanobody polyreactivity screen of Harvey et al. (2022):

Experiment: yeast display, Sf9 membrane polyspecificity reagent, FACS + sequencing; frameworks hold sequencing errors
Summary of the method: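 Synthetic nanobody libraries on Saccharomyces cerevisiae BJ5465 were galactose-induced for 36–48 hours, stained 1 hour at 4 °C with 10% biotinylated, detergent-solubilized Sf9 membrane reagent and enriched on streptavidin microbeads. FACS then separated cells into low and high (top ~1%) gates by anti-HA (expression) and streptavidin (reagent binding) fluorescence. Genes were colony-PCR amplified, MiSeq 2 × 250 sequenced and CDR-length filtered. A clone's polyreactivity label is that of its gate of origin.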

| Sequence | polyreactivity (PSR sort gate) |
| --- | --- |
| QVQLVESGGGLVQAGGSLRLSCAASGRTFGVYMGWYRQAPGKERELVAVISSGDSTNYADSVKGRFTISRDNAKNTVYLLMNSLKPEDTAVYYCNAYGSDRLTLDDYWGQGTQVSVSS | low polyreactivity |
| QVQLVESGGGLVQAGGSLRLSCAASGRTFGWDAMGWYRQAPGKERELVAAINNSGDITYYADSVKGRFTISRDNAKNTVYLQMNSLKPEDTAVYYCAATAGYYGYPSEYDYWGQGTQVTVSS | low polyreactivity |
| QVQLVESGGGLVQAGGSLRLSCAASGRTFGWNAMGWYRQAPGKERELVAGITTSGGTTYADSVKGRFTISRDNAKNTVYLQMNSLKPEDTAVYYCAAYVIGPDQFIYDYWGQGTQVTVSS | low polyreactivity |
| QVQLVESGGGLVQAGGSLRLSCAASGRTFGWYAMGWYRQAPGKERELVAAINNSGDITYYADSVKGRFTISRDNAKNTVYLQMNSLKPEDTAVYYCAKSLPHSTSRDYWGQGTQVTVSS | low polyreactivity |
| QVQLVESGGGLVQAGGSLRLSCAASGRTFGYNALGWYRQAPGKERELVAAINWSGASTYYADSVKGRFTISRDKAKNTVYLQMNSLKPEDTAVYYCAKVTRGSQYDYWGQGTQVTVSS | low polyreactivity |
| QVQLVESGGGLVQAGGSLRLSCAASGRTFGYNAMGWYRQAPGKERELVAAISWRSGGTYYADSVKGRFTISRDNANNSVYLQMISLKPEDTAVYYCARRSPHHGRDYWGQGTQVTVSS | low polyreactivity |
| QVQLVESGGGLVQAGGSLRLSCAASGRTFGYNAMGWYRQAPGKERELVAVIRSGGSTSYADSVKGRFTISRDNAKNTVYLQMNSLKPEDTAVYYCAATGLYNVTSPYSYKYDYWGQGTQVTVSS | low polyreactivity |
| QVQLVESGGGLVQAGGSLRLSCAASGRTFGYNAMGWYRQAPGKESELVAAINWSGASTYYADSVKGRFTISRDNAKNTVYLQMNSLKAEDTAVYYCAADYSYIYGFDYWGQGTQVTVSS | low polyreactivity |
| QVQLVESGGGLVQAGGSLRLSCAASGRTFGYNAMGWYRQAPVKERELVAAIRTIGDSTYYADSVKGRFTISRDNAKNTVYLQMNSLKPEDTAVFYCAARKLRSRYDYWGQGTQVTVSS | high polyreactivity |
| QVQLVESGGGLVQAGGSLRLSCAASGRTFGYNAMGWYSQAPGKERELVAAISYSGGRTYYADSVKGRFTISRDNAKNTVYLQMNSLKPEDTAVYYCAAKNPYKYDYWGQGTQVTVSS | high polyreactivity |
| QVQLVESGGGLVQAGGSLRLSCAASGRTFGYNVMGWYRQAPGKERELVADITSTSSTSYADSVKGRFTISRDNAKNTVYLQMNSLTPEDTAVYYCAAYYYFFRRYSWRLSGDYWGQGTQVTVSS | low polyreactivity |
| QVQLVESGGGLVQAGGSLRLSCAASGRTFGYYAMGWSRQAPGKERELVAAITYSGGRTRYADSVKGRFTISRDNAKNTVYLQMNSLKPEDTAVYYCNRVIPTQSLRDYYWGQGTQVTVSS | high polyreactivity |
| QVQLVESGGGLVQAGGSLRLSCAASGRTFGYYAMGWYRQAPGKERELVAAISWRGTSTYYADSVKGRFTISRDNAKNTVYLQMNSLKPEDTAVYYCNRYTTRYYPGGDYWGQGTQVTVSS | high polyreactivity |
| QVQLVESGGGLVQAGGSLRLSCAASGRTFGYYAMGWYRQAPGKERELVAAITRSGDRTYYADSVKGRFTISRDNAKNTVYLQLNSLKPEDTAVYYCARYAYLISDYWGQGTQVTVSS | high polyreactivity |
| QVQLVESGGGLVQAGGSLRLSCAASGRTFGYYAMGWYRQAPGKERELVAGIRSSGGSTYYADSVKGRFTISRDNAKNTVYLQMNSLKPEDTAVYYCAARLRSYHYRYGYDYWGQGTQVTVSS | high polyreactivity |
| QVQLVESGGGLVQAGGSLRLSCAASGRTFGYYAMVWYRQAPGKERELVAAISTSGGGTYYADSVKGRFTISRDNAKNTVYLQMNSLKPEDTAVYYCNRDSRVLEGDYWGQGTQVTVSS | low polyreactivity |
